This is an account of results in article PMC9379584 (iScience, 2022).

One may read the IC50 as the midpoint of a concentration-inhibition curve. The term EC50 denotes the midpoint of the concentration-response curve. High values mean weaker potency, low ones greater potency.

Where “and” joins values, the source holds several entries; their conditions need not be identical. Identical values can stand only once. Like-named read-outs stand apart in the source and are kept apart here.

Assay [1] addresses IL6-HiBiT-α2A-AR-HaloTag (rat α2A-adrenergic receptor) (rat) (UniProt P22909). The experiment in a line: FRET or BRET.
The target in assay [2] is IL6-HiBiT-D2R-HaloTag (human dopamine D2 receptor) (human) (UniProt P14416). The experiment in a line: FRET or BRET.
Assay [3] concerns mouse pancreatic islets. The assay can be described thus: Glucose-stimulated insulin secretion. The format is cell-based. The note with it: read-out: IC50, inhibition of GSIS; wildtype mouse islets, 20 mM glucose, 90 min.
The subject of assay [4] is INS-1E cells. The assay can be described thus: Glucose-stimulated insulin secretion. The format is cell-based, rat. To be noted: read-out: IC50, inhibition of GSIS; INS-1E, 20 mM glucose, 90 min.
Assay [5] concerns INS-1E cells. The assay can be described thus: HTRF cAMP assay in INS-1E cells. The format is cell-based, rat. To be noted: normalized to DA's efficacy in parental INS-1E.
Assay [6] concerns α2A-AR KO INS-1E-derived cell line. The experiment in a line: HTRF cAMP assay in α2A-AR KO INS-1E-derived cells. It counts as cell-based, rat.
In assay [7] the target is T1, α2A-AR (Rattus norvegicus, UniProt P22909).
T1 sequence (P22909 1-465): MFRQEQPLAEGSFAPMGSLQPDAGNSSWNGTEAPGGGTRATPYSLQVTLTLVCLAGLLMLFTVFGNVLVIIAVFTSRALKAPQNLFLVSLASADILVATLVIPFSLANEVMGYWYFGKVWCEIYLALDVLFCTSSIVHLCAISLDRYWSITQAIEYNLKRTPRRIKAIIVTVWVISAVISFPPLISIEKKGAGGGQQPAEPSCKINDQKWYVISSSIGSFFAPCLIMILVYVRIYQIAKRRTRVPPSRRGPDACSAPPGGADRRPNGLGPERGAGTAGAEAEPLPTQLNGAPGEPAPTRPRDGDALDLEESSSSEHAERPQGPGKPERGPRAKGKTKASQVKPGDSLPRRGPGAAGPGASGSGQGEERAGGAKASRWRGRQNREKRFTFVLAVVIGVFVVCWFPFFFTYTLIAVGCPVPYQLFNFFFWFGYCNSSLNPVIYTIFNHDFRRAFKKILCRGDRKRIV
The experiment in a line: cell-based. To be noted: nanoBRET.

The target of assay [8] is T1, α2A-AR. It counts as cell-based. To be noted: nanoBRET. (In general: Bioluminescence resonance energy transfer reports proximity on the nanometre scale.)
The test system of assay [9] is mouse pancreatic islets. The note with it: cited from earlier work.
The test system of assay [10] is INS-1E cells. The note with it: cited from earlier work.
Assay [11] deals with IL6-HiBiT-D2R-HaloTag (human dopamine D2 receptor) (human, UniProt P14416 1-443, HaloTag NanoBRET 618 ligand bound to the HaloTag). The assay can be described thus: FRET or BRET.
[12] abbreviates: α2A-AR KO versus parental INS-1E.
[13] abbreviates: read-out: IC50, inhibition of GSIS, ref Aslanoglou et al. (2021).
The mark [14] stands for this setting: read-out: IC50, inhibition of GSIS, ref Aslanoglou et al., 2021.

Chain of IL6-HiBiT-D2R-HaloTag (human dopamine D2 receptor) (P14416 whole entry): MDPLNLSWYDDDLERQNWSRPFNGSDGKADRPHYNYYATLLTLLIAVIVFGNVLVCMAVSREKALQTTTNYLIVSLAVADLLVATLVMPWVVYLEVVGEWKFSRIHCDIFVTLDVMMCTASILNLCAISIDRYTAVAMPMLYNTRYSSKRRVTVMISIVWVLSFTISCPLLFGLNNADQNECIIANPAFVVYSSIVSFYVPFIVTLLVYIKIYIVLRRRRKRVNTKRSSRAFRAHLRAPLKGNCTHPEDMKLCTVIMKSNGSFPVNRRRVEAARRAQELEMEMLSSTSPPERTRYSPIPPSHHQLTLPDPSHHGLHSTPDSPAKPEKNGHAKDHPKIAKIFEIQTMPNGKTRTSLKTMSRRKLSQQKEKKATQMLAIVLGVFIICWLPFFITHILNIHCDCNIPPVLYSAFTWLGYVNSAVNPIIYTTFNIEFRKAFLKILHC
Chain of IL6-HiBiT-D2R-HaloTag (human dopamine D2 receptor) (human) (P14416 whole entry): as above

For the molecule “NanoLuc-Gαi2(91) (from UniProt P04899 1-355) (natural protein)”, in [1], the Emax of recruitment with bromocriptine (% of the NE response) (% of NE response) came to 43.8.

In [2], “NanoLuc-Gαi2(91) (from UniProt P04899 1-355) (natural protein; other documents disagree on this pair)” displayed an EC50 of the agonist DA for recruitment of 2.88 nM, an EC50 of the agonist NE for recruitment of 25.3 nM, an EC50 of the agonist bromocriptine for recruitment of 21.6 nM and an Emax of recruitment with bromocriptine (% of the DA response) (% of DA response) of 89.3.

In assay [1], “NanoLuc-GαoA(91) (from UniProt P09471 1-354) (natural protein)” gave an Emax of recruitment with bromocriptine (% of the NE response) (% of NE response) of 43.

“NanoLuc-Gαi1(91) (from UniProt P63096 1-354) (natural protein)” returned an Emax of recruitment with bromocriptine (% of the NE response) (% of NE response) in assay [1] of 15.4.

In [1], “NanoLuc-Gαz(91) (from UniProt P19086 1-355) (natural protein)” yielded an Emax of recruitment with bromocriptine (% of the NE response) (% of NE response) of 21.2.

Regarding `Clc1cccc(Cl)c1N=C1NCCN1` [Clonidine, clonidine], the IC50 amounted to 7.36 nM in assay [3] and 9.06 nM in assay [4].

“NanoLuc-Gαi3(91) (from UniProt P08754 1-354) (natural protein)”: in assay [1], the Emax of recruitment with bromocriptine (% of the NE response) (% of NE response) was determined as 12.7.

As to “NanoLuc-Gαz(91) (from UniProt P19086 1-355) (natural protein; other documents disagree on this pair)”, in assay [2], the EC50 of the agonist NE for recruitment was 0.07 nM, the EC50 of the agonist bromocriptine for recruitment turned out to be 4.3 nM and the Emax of recruitment with bromocriptine (% of the DA response) (% of DA response) came to 66.5.

For `NCCc1ccc(O)c(O)c1` [DA, dopamine], the “Emax, inhibition of cAMP production” value in assay [5] was 100.00 % DA; in assay [6] (α2A-AR KO, normalized to DA's efficacy in parental INS-1E), 57.15 [46.22–88.79] % DA. In addition, the IC50 was 1500 nM in assay [6] (read-out: IC50, inhibition of cAMP production, α2A-AR KO); 1300 nM in assay [9] (setting [13]); 1300 nM in assay [9] (setting [14]); 1490 nM in [10] (setting [13]); 1500 nM in assay [10] (setting [14]). Besides, the “increase of potency in diminishing cAMP by α2A-AR KO” value in [6] (setting [12]) is given as 1.7 fold. The “reduction of efficacy in lowering cAMP by α2A-AR KO” value in [6] (setting [12]) was 57% and 57.2%. The EC50 is 1040 nM in [7] (EC50, Gαi2 recruitment to α2A-AR, Gαi2); 1030 nM in [7] (EC50, Gαi3 recruitment to α2A-AR, Gαi3); 836 nM in assay [7] (EC50, GαoA recruitment to α2A-AR, GαoA); 945 nM in [7] (EC50, GαoB recruitment to α2A-AR, GαoB); 666 nM in [7] (EC50, Gαz recruitment to α2A-AR, Gαz); 933 nM in assay [7] (pEC50, GαoB recruitment to α2A-AR, GαoB). Moreover, the “β-arrestin1 recruitment to α2A-AR” value in assay [8] is on record as “negligible recruitment”. Moreover, the “pIC50, inhibition of GSIS” value in assay [9] (ref Aslanoglou et al. (2021)) is reported as 5.89; in [10] (ref Aslanoglou et al. (2021)), 5.83.

For “NanoLuc-Gαi3(91) (from UniProt P08754 1-354) (natural protein; other documents disagree on this pair)”, in assay [2], the EC50 of the agonist NE for recruitment worked out at 32600 nM, the EC50 of the agonist bromocriptine for recruitment came to 84.3 nM and the Emax of recruitment with bromocriptine (% of the DA response) (% of DA response) stood at 64.2.

As for “NanoLuc-Gαi1(91) (from UniProt P63096 1-354) (natural protein; other documents disagree on this pair)”, in assay [2], the EC50 of the agonist NE for recruitment was found to be 4900 nM, the EC50 of the agonist bromocriptine for recruitment was determined as 104 nM and the Emax of recruitment with bromocriptine (% of the DA response) (% of DA response) was 60.

The molecule “NanoLuc-GαoA(91) (from UniProt P09471 1-354) (natural protein; other documents disagree on this pair)” gave an Emax of recruitment with bromocriptine (% of the DA response) (% of DA response) in assay [2] of 109.

B1: NanoLuc-GαoB(91) (natural protein)
chain: MGCTLSAEERAALERSKAIEKNLKEDGISAAKDVKLLLLGAGESGKSTIVKQMKIIHEDGFSGEDVKQYKPVVYSNTIQSLAAIVRAMDTLGIEYGDKERKADAKMVCDVVSRMEDTEPFSAELLSAMMRLWGDSGIQECFNRSREYQLNDSAKYYLDSLDRIGAADYQPTEQDILRTRVKTTGIVETHFTFKNLHFRLFDVGGQRSERKKWIHCFEDVTAIIFCVALSGYDQVLHEDETTNRMHESLKLFDSICNNKWFTDTSIILFLNKKDIFEEKIKKSPLTICFPEYTGPSAFTEAVAYIQAQYESKNKSAHKEIYTHVTCATDTNNIQFVFDAVTDVIIAKNLRGCGLY
For the molecule B1, in assay [11], the “EC50 of the agonist DA for recruitment” value was 22.4 nM, the “EC50 of the agonist NE for recruitment” value came to 139 nM and the “EC50 of the agonist bromocriptine for recruitment” value came out at 0.27 nM.
